Results as given in publication PMC4350284.

Columns and labels:
STAT5A = STAT5A (UniProt P42230); assay: biotin-peptide precipitation from lysate, GFP blot; conditions: reference: non-phosphorylated Src peptide; sites Y416
STAT5A-eYFP (murine) = STAT5A-eYFP (murine) (UniProt P42230)

Substance	binding against the reference (STAT5A)	subcellular distribution of STAT5A-eYFP in HeLa T-REx FRT cells expressing vSrc^Y416F-dsRed, nucleus/cytoplasm (n/c) ratio (STAT5A-eYFP (murine))
Src-peptide (activation loop of cSrc (vSrc), Yes and Fyn) (from UniProt P00523) pY416 Src peptide	gained	–
vSrc^Y416F-dsRed (from UniProt P00524 1-526) (enzyme)	–	1
